Test results as given in patent US7115556B2, “Use of anti-prolactin agents to treat proliferative conditions” (Greenville Hospital System, priority 1998, dated 2006).

Key:
rat Nb2 T lymphoma cells = settings: Goffin et al., 1994; cited from earlier work
[1] = tested on: T47D human breast cancer cells; experiment: Cell proliferation assay, cell counting; format: cell-based; settings: FIGS. 5A-B
Procedure: Cell proliferation assays. hPRLA was tested for its ability to inhibit breast cancer cell proliferation in tissue culture. The human breast cancer cells were grown in corresponding culture media according to ATCC recommendations. Cells were maintained at 37° C. in a humidified atmosphere of 5% CO2 in air. The assay conditions were essentially as described by Ginsburg and Vonderharr (1995, Cancer Res. 55:2591–2595). For individual growth experiments, cells were plated in 12 well culture plates at a density of approximately 2×10^4 /ml, 1 ml/ well. Cells were then allowed to attach for one day (T-47D, MCF-7, HTB19, and HTB20 cells, except for HTB 123, which is a suspension cells), then the overlying media was removed and changed to serum-free conditions with media containing ITS^+ (insulin-transferring-selenium-BSA-linoleic acid culture supplement; Collaborative Research Bedford, Mass.). Varying concentrations of hPRL alone or in combination with hPRLA were introduced. After an additional three days in culture, cells were harvested after brief trypsinization and counted in a cell counter.

[2] = tested on: tyrosine phosphorylation of STAT proteins in T47-D cells; experiment: Tyrosine phosphorylation of STAT proteins in T47-D cells (Example 10); format: cell-based, human
Procedure: Tyrosine Phosphorylation of STAT Proteins in T47-D cells. This assay is designed to examine the effects of HPRL and hPRL-G129R on signal transduction using T47-D cells as model target cells. Briefly, T47-D cells were plated in 12-well plates. After pre-incubation in serum-free medium for 2–3 hours, cells were exposed to various concentrations of hPRL or hPRL-G129R or a combination of hPRL and hPRL-G129R in serum-free medium. The cells were incubated for 15 min at 37° C., washed once with PBS, and lysed in 200 μl lysis buffer (50 mM Tris-HCl, pH 6.8, 1% SDS, 1% β-mecaptoethanol, 0.1M DTT, 5% sucrose, 100 μM sodium orthovanadate, and 0.6% bromophenol blue). Thirty microliters of cell lysate are then subjected to 4–12.5% SDS-PAGE using the Bio-Rad Protein II system. After electrophoresis, the gels were transferred to a Hybond-ECL membrane (Amersham, Ill.) at 100 volts constant voltage for 2 hrs. Blots were incubated in a blocking solution of 4% BSA (Boehringer Mannheim, Ind.) in rinsing buffer (10 mM Tris-HCl pH 7.5, 75 mM NaCl, 0.1% Tween 20, 1 mM EDTA) for 2 hrs and subsequently washed twice with rinsing buffer for 15 min. Blots were incubated with horseradish peroxidase (HRP)-conjugated antiphosphotyrosine antibody PY20 (Amersham, Ill.) at a concentration of 0.1 μg/ml in the blocking solution for 1 hr. […] Blots were then exposed to X-ray film and developed using standard procedures (Kodak, Rochester, N.Y.).

T47-D cells = experiment: Co-culture with L-G129R cells, T47-D; format: cell-based, human; settings: T47-D co-cultured with L-G129R cells
Excerpt: (§1) The co-culture experimental set-up provides a sustained presence of biologically active hPRL-G129R, thereby resulting in a maximal response in these tumor cells.

hPRLR = biological target: T1, hPRLR (Homo sapiens, UniProt P16471); settings: Goffin et al., 1996; cited from earlier work
T1 sequence (P16471 25-622): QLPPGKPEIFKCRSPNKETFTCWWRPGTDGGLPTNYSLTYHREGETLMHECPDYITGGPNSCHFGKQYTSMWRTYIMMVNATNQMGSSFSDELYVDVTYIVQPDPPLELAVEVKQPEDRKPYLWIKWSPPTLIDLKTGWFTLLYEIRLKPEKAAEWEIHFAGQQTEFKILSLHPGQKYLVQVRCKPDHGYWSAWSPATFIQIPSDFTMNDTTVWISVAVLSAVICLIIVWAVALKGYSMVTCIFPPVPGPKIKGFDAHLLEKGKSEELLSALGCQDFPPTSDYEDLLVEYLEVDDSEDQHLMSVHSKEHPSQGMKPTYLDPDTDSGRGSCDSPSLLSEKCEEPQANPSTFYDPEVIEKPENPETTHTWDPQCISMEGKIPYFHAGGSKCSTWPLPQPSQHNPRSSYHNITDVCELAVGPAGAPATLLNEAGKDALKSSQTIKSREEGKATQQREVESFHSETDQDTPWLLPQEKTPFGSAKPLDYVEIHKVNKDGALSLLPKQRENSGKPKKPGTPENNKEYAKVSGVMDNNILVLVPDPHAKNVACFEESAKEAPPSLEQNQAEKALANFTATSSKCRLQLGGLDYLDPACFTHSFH

[3] = tested on: T-47D human breast cancer cells; experiment: TUNEL assay, T-47D; format: cell-based
Procedure: Cell Culture. T-47D cells obtained from ATCC were grown in RPMI 1640 (phenol red free), supplemented with 10% FBS (GIBCO BRL). BT-474 cells were grown in RPMI 1640 medium (phenol red free) supplemented with 10% FBS and ATCC recommended supplements. MCF-7 cells were grown in DMEM medium (phenol red free), supplemented with 10% FBS. The cells were grown at 37° C. in a humid atmosphere in the presence of 5% CO2. The MDA-MB-134 cells were grown in Leibovitz's L-15 medium supplemented with 20% FBS and grown in CO2 free atmosphere. The breast cancer cells were trypsinized (0.02% Trypsin—EDTA) and grown in their respective media (phenol red free) supplemented with 10% CSS (Charcoal stripped serum) for a week. Subsequently the cells were trypsinized again and plated onto an 8 chambered slide system (Lab Tek II) at a confluence of 60–70% per chamber. The next day treatments were performed on the breast cancer cells using their respective media(phenol red free), supplemented with 1% CSS. The MDA-MB-134 VI cells were grown in phenol red containing medium, but with the same serum conditions as the other breast cancer cells.
Terminal deoxynucleotidly transferase mediated dUTP nick end labeling (TUNEL) assay. Nicks of the fragmented DNA are labeled at their 3-OH ends. The fluorescein-labeled dUTP is incorporated at the 3-OH ends by using the enzyme terminal deoxynucleotidyl transferase. After the assigned period of treatment the chambers were dismantled as per the manufacturer's instructions and the TUNEL assay (Apoptosis detection system, Fluorescein- Promega) was performed as per the manufacturer's instructions. The slide was examined under a FITC filter using an Olympus IX 70 microscope system.

MCF-7 cells = experiment: Co-culture with L-G129R cells, MCF-7; format: cell-based, human; settings: MCF-7 co-cultured with L-G129R cells; more hPRL-G129R required than for T47-D
Excerpt: as §1

B1: hPRL-G129R: variant of human prolactin having a substitution of the glycine at position 129 with an arginine residue; prolactin receptor antagonist (protein)
chain: LPICPGGAARCQVTLRDLFDRAVVLSHYIHNLSSEMFSEFDKRYTHGRGFITKAINSCHTSSLATPEDKEQAQQMNQKDFLSLIVSILRSWNEPLYHLVTEVRGMQEAPEAILSKAVEIEEQTKRLLERMELIVSQVHPETKENEIYPVWSGLPSLQMADEESRLSAYYNLLHCLRRDSHKIDNYLKLLKCRIIHNNNC
activity in Nb2 proliferation assay (rat Nb2 T lymphoma cells): weak agonist | proliferation of T47D cells relative to untreated control cultures [1]: comparable inhibitory effect | inhibition of STAT protein phosphorylation induced by hPRL ([2]; 5:1 ratio (500 ng/ml hPRL-G129R, 100 ng/ml hPRL)): completely inhibited | stimulating STAT protein phosphorylation ([2]; T47-D cells, hPRL-G129R alone (100 ng/ml, FIG. 13)): not active | block of signal transduction (STAT phosphorylation) induced by hPRL ([2]; added together with hPRL): block the signal transduction induced by hPRL in a dose dependent manner | inhibition of cell proliferation in co-culture (T47-D cells): Complete inhibition | effect in PRLR reporter gene assay (hPRLR): antagonist effect | DNA fragmentation after 2 hours of treatment ([3]; 50 ng/ml, 2 hours): apparent | apoptosis at physiological concentration ([3]; 50 ng/ml, 24 h): apoptosis occurs | induction of apoptosis DNA fragmentation ([3]; 250 ng G129R, 24 hours): induced apoptosis | competition between G129R and hPRL on DNA fragmentation ([3]; 1:1 ratio (125 ng/ml each)): able to compete with hPRL | apoptosis (DNA fragmentation), dose response ([3]; 24 h treatment): induced apoptosis in a dose dependent manner | inhibition of cell proliferation in co-culture (MCF-7 cells): Complete inhibition
